Substitutions are numbered along the chain they refer to.
T1: huGIPR ECD (human, UniProt P48546 22-139, limits assumed)
T1 construct: Soluble ECD injected in the MASS-1 assay; also called human GIPR extracellular domain
T1 sequence: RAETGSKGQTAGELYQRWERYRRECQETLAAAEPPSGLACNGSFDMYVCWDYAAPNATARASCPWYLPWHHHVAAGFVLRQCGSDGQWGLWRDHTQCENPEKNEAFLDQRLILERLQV

T2: Rhesus GIPR (rhesus, UniProt F7E1R9 22-466)
T2 sequence: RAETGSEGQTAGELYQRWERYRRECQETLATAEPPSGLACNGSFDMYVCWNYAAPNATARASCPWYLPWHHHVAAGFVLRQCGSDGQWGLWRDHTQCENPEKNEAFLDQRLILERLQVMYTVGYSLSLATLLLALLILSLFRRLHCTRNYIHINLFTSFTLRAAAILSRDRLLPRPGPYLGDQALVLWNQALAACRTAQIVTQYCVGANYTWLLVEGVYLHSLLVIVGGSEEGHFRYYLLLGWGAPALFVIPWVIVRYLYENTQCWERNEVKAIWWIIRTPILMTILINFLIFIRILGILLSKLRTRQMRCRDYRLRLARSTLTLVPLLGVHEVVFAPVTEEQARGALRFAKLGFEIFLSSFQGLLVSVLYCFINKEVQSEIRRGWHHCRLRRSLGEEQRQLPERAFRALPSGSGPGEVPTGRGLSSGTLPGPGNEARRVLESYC

B1: 6A5.004.009 (antibody, human IgG1, kappa, N297G, V domains shown)
VH: QVQLVESGGGVVQPGRSLRLSCAASGFSFSSYGMHWVRQPPGKGLEWVAAIWYDANNKYYADSVKGRFTISRDSSKNTLYLQMNSLRAEDTAVYYCARDRTIFGVVLEYWGQGTLVTVSS
VL: DIQMTQSPSSLSASVGDRVTITCQASQDITNYLNWYQQKPGKAPKLLIYDASNLEPGVPSRFSGSGSGTDFTLTISSLQPEDFATYYCQQYDDLFTFGPGTKVDIKR
notes: also called iPS:361120; iPS:361122
B2: 2A11.003 (antibody, human IgG1, kappa, N297G, V domains shown)
VH: QVQLVESGGGVVQPGRSLRLSCAASGFSFSSYGMHWVRQAPGKGLEWVAVIWYDGSNKYYEDSVKGRFTISRDNSKNTLFLQVNSLRAEDTAVYYCARGITIFGHGFEYWGQGTLVTVSS
VL: EIVLTQSPGTLSLSPGERATLSCRASQIFTSTYLAWYQQKPGQAPRLLIYGASSRATGIPDRFSGSGSGTDFTLTISRLEPEDFAVYYCQQYGSSPRFGQGTRLEIKR
notes: also called iPS:335965; iPS:335967
B3: 2A11.005 (antibody, human IgG1, kappa, N297G, V domains shown)
VH: B2 VH with G55A
VL: B2 VL
notes: also called iPS:361165; iPS:361167
B4: 2A11.004 (antibody, human IgG1, kappa, N297G, V domains shown)
VH: B2 VH with S63A
VL: B2 VL
notes: also called iPS:361158; iPS:361160
B5: 4H9.004.003 (antibody, human IgG1, kappa, N297G, V domains shown)
VH: not shown
VL: DIQMTQSPSSLSASVGDRVTITCRASQGIRNELGWYQQKPGKAPKLLIYGASSLQSGVPSRFSGSGSGTEFTLTISSLQPEDFVTYYCLQHNSYPFTFGQGTKVDVKR
B6: 12H11.008 (antibody, human IgG1, kappa, N297G, V domains shown)
VH: QVPLVQSGAEVKKPGASVKVSCKASGYTFTGYYIHWVRQAPGQGLEWMGWISPNNGETNYAQKFQDRVTMTRDTSISTAYMELSRLRSDDTAVYYCTREATIFGMLIVPFDYWGQGTLVTVSS
VL: DIVMTQSPDSLSVSLGERATINCKSSQSVLSSSNNKNYLAWYQQKPGQPPNLLIYWTSTRDSGVPDRFSGSGSGTDFTLTINSLQAEDVAVYYCQQYYRTPWTFGQGTKVEIKR
B7: 12H11.012 (antibody, human IgG1, kappa, N297G, V domains shown)
VH: B6 VH with T97A
VL: not shown
B8: 12H11.010 (antibody, human IgG1, kappa, N297G, V domains shown)
VH: B6 VH with E57D, T97A
VL: not shown
B9: 12H11.009 (antibody, human IgG1, kappa, N297G, V domains shown)
VH: B6 VH with N55Q, T97A
VL: not shown
B10: 12H11.011 (antibody, human IgG1, kappa, N297G, V domains shown)
VH: B6 VH with N55Q, E57D, T97A
VL: not shown
B11: 2F11.002 (antibody, human IgG1, kappa, N297G, V domains shown)
VH: not shown
VL: B1 VL with T30S, P56T, T72S, D93I, F95L, P99G, D104E
B12: 2F11.010 (antibody, human IgG1, kappa, N297G, V domains shown)
VH: not shown
VL: B1 VL with T30S, P56T, T72S, D93I, F95L, P99G, D104E
B13: 2F11.006 (antibody, human IgG1, kappa, N297G, V domains shown)
VH: B1 VH with S28T, P40A, A50V, N56S, S63A, R72S, S74N, E108D
VL: B1 VL with T30S, P56T, T72S, F83I, D93I, F95L, P99G, D104E
B14: 2F11.007 (antibody, human IgG1, kappa, N297G, V domains shown)
VH: B1 VH with S28T, P40A, A50V, N56S, S63A, R72S, S74N, E108D
VL: B1 VL with T30S, P56T, T72S, L73F, D93I, F95L, P99G, D104E
B15: 2F11.009 (antibody, human IgG1, kappa, N297G, V domains shown)
VH: B1 VH with S28T, P40A, A50V, N56S, S74N, E108D
VL: B1 VL with T30S, P56T, T72S, D93I, F95L, P99G, D104E
B16: 2F11.004 (antibody, human IgG1, kappa, N297G, V domains shown)
VH: not shown
VL: B1 VL with T30S, P56T, T72S, F83I, D93I, F95L, P99G, D104E
B17: 2F11.003 (antibody, human IgG1, kappa, N297G, V domains shown)
VH: B1 VH with S28T, P40A, A50V, N56S, S63A, R72S, S74N, E108D
VL: B1 VL with T30S, P56T, T72S, D93I, F95L, P99G, D104E
B18: 2F11.008 (antibody, human IgG1, kappa, N297G, V domains shown)
VH: not shown
VL: B1 VL with T30S, P56T, T72S, L73F, F83I, D93I, F95L, P99G, D104E
B19: 2F11.005 (antibody, human IgG1, kappa, N297G, V domains shown)
VH: not shown
VL: B1 VL with T30S, P56T, T72S, L73F, D93I, F95L, P99G, D104E
B20: 17B11.002.001 (antibody, human IgG1, lambda, N297G, V domains shown)
VH: QMQLVQSGAEVKKPGASVKVSCKASGYTFTSYDINWVRQATGQGLEWMGWMNPNSGGTGYAQKFQGRVTMTRDTSISTAYMELSSLRSQDTAVYYCARGGDYVWGSYRPYYYYYGMDVWGQGTTVTVSS
VL: QSVLTQPPSVSAAPGQKVTISCSGSSSNIGNNYVSWYQQLPGTAPKLLIYDNNKRPSGIPDRFSGSKSGTSATLGITGLQTGDEADYYCGTWDSSLSAVVFGGGTKLTVLG
B21: 17B11.002.007 (antibody, human IgG1, lambda, N297G, V domains shown)
VH: B20 VH with W104F
VL: B20 VL
B22: 17B11.002.002 (antibody, human IgG1, lambda, N297G, V domains shown)
VH: B20 VH with G57N
VL: B20 VL
B23: 17B11.002.006 (antibody, human IgG1, lambda, N297G, V domains shown)
VH: B20 VH with T41P, G57N, Q89D
VL: B20 VL with G75A
B24: 17B11.002.004 (antibody, human IgG1, lambda, N297G, V domains shown)
VH: B20 VH with T41P, Q89D
VL: B20 VL with G75A, W92F, D93E
B25: 17B11.002.008 (antibody, human IgG1, lambda, N297G, V domains shown)
VH: B20 VH with T41P, Q89D, W104F
VL: B20 VL with G75A, W92F, D93E
B26: 17B11.002.005 (antibody, human IgG1, lambda, N297G, V domains shown)
VH: B20 VH
VL: B20 VL with G75A
B27: 17B11.002.003 (antibody, human IgG1, lambda, N297G, V domains shown)
VH: B20 VH
VL: B20 VL with Q38E, L40F
B28: 17B11.002 (antibody, human IgG1, lambda, N297G, V domains shown)
VH: B20 VH with G57N
VL: B20 VL with Q38E, L40F
B29: 2C2.005.013 (antibody, human IgG1, lambda, N297G, V domains shown)
VH: QMQVVQSGAEVKKPGASVKVSCKASGYTFTGYYMHWVRQAPGQGLEWMGWINPNSGGTNYAQKFQGRVTMTRDTSISTAYMELSSLRSDDTAVYYCARGGDYVFGTYRPHYYYGMDVWGQGTTVTVSS
VL: not shown

These binders were tested against T1, huGIPR ECD (assay: SPR (MASS-1), captured mAb).

Row | binding result | Binder
1 | no binding (tested: 200 nM huGIPR ECD) | B1
2 | no binding (tested: 200 nM huGIPR ECD) | B2
3 | no binding (tested: 200 nM huGIPR ECD) | B3
4 | no binding (tested: 200 nM huGIPR ECD) | B4

Each binder was assayed against T2, Rhesus GIPR (assay: cell-based or functional assay).

Row | Rhesus GIPR CAMP Assay (Conc. mAb @ 60% Inhibition in nM) [nM] | Binder
5 | 0.5 | B5
6 | 0.56 | B6
7 | 0.57 | B7
8 | 0.71 | B8
9 | 0.6 | B9
10 | 0.47 | B10
11 | 23.3 | B1
12 | 40 | B11
13 | 8.24 | B12
14 | 1.3 | B13
15 | 1.82 | B14
16 | 36.9 | B15
17 | 35.5 | B16
18 | 1.79 | B17
19 | 57.4 | B18
20 | 68.6 | B19
21 | 0.29 | B20
22 | 0.9 | B21
23 | 0 | B22
24 | 0 | B23
25 | 0.17 | B24
26 | 7.89 | B25
27 | 0.08 | B26
28 | 0.08 | B27
29 | 0.21 | B28
30 | 1.23 | B29

— US20250376529A1 (Amgen, published 2025)
